This is an account of results in the supplement of paper PMC7877785.

This series in a line: self-splicing fitness, log relative to wild type (ln ratio); higher = more splicing; Tetrahymena group I intron in knt gene, E. coli kanamycin selection, DiMSum; sequences stand for … in CUCUCU…GGAGGGAAAAGUUAUCAGGCAUGCACCUGGUAGCUAGUCUUUAAACCAAUAGAUUGCAUCGGUUUAAAAGGCAAGACCGUCAAAUUGCGGGAAAGGGGUCAACAGCCGUUCAGUACCAAGUCUCAGGGGAAACUUUGAGAUGGCCUUGCAAAGGGUAUGGUAAUAAGCUGACGGACAUGGUCCUAACCACGCAGCCAAGUCCUAAGUCAACAGAUCUUCUGUUGAUAUGGAUGCAGUUCACAGACUAAAUGUCGGUCGGGGAAGAUGUAUUCUUCUCAUAAGAUAUAGUCGGACCUCUCCUUAAUGGGAGCUAGCGGAUGAAGUGAUGCAACACUGGAGCCGCUGGGAACUAAUUUGUAUGCGAAAGUAUAUUGAUUAGUUUUGGAGUACUCGUGGUCG
Summed up:
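Pooled colonies went to amplicon sequencing on an Illumina HiSeq 2500 after six replicate transformations. The plates were LB agar with 100 μg/mL carbenicillin, 50 μM IPTG and 0.2% rhamnose, with or without 25 μg/mL kanamycin, incubated overnight at 37°C or 30°C. The E. coli BL21(DE3) library had all eight P1ex-region intron nucleotides randomised, the intron placed in the knt kanamycin-resistance gene on pET-22b(+). DiMSum fitness is the error-weighted combination of replicate fold changes, kanamycin against none, normalised to wild type.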

± gives the uncertainty stated by the source.

Turning to UUCCAGCAAUAUUACGACCA, the “self-splicing fitness (ln)” value is -0.177 ± 0.26 (30 °C) and -0.862 ± 0.23 (37 °C).

For the sequence GCUGAGCAAUAUUACGGGCU, the “self-splicing fitness (ln)” value (30 °C) is -1.89 ± 0.31.

In the case of CUGUAGCAAUAUUACGCACU, the “self-splicing fitness (ln)” value is -1.84 ± 0.37 (30 °C) and -2.25 ± 0.31 (37 °C).

AACAAGCAAUAUUACGGCCU: the “self-splicing fitness (ln)” value reads like this: (30 °C) 0.0767 ± 0.082; (37 °C) 0.355 ± 0.1. Take CGCAAGCAAUAUUACGUACG: the “self-splicing fitness (ln)” value is, setting by setting: (30 °C) -2.03 ± 0.086; (37 °C) -0.768 ± 0.1. The like results for CCCGAGCAAUAUUACGAGCG were, in that order, -3.77 ± 0.29 and -2.88 ± 0.27.

In the case of GGAAAGCAAUAUUACGCAGU, the “self-splicing fitness (ln)” value was -2.78 ± 0.13 (30 °C) and -1.47 ± 0.12 (37 °C). Turning to CAAAAGCAAUAUUACGCGGU, the “self-splicing fitness (ln)” value is -3.58 ± 0.2 (30 °C) and -2.46 ± 0.24 (37 °C). For AAGGAGCAAUAUUACGAGAA, the “self-splicing fitness (ln)” value (30 °C) is -3.76 ± 0.42 and the “self-splicing fitness (ln)” value (37 °C) was -2.22 ± 0.24. Regarding GCUUAGCAAUAUUACGCAGU, the “self-splicing fitness (ln)” value (30 °C) is -2.45 ± 0.25 and the “self-splicing fitness (ln)” value (37 °C) was -3.16 ± 0.47. With GGAGAGCAAUAUUACGUUCU, the “self-splicing fitness (ln)” value (30 °C) is -3.27 ± 0.25 and the “self-splicing fitness (ln)” value (37 °C) was -3.5 ± 0.39.

Consider CGAUAGCAAUAUUACGUAAA, for which the “self-splicing fitness (ln)” value reads like this: (30 °C) -2.6 ± 0.32; (37 °C) -0.509 ± 0.26. As for ACCUAGCAAUAUUACGGGUU, the “self-splicing fitness (ln)” value runs as follows: (30 °C) -2.78 ± 0.14; (37 °C) -1.95 ± 0.14. The like results for ACCGAGCAAUAUUACGACGG were, in that order, -2.24 ± 0.2 and -0.893 ± 0.21. The matching figures for UAUCAGCAAUAUUACGAAAG: -1.62 ± 0.12 and -1.21 ± 0.17. For AAAAAGCAAUAUUACGUCAU, the “self-splicing fitness (ln)” value is -2.2 ± 0.08 (30 °C) and -1.14 ± 0.092 (37 °C).

Consider UUACAGCAAUAUUACGCUUA, for which the “self-splicing fitness (ln)” value is, setting by setting: (30 °C) -1.38 ± 0.11; (37 °C) -0.114 ± 0.1. The matching figures for GACUAGCAAUAUUACGUUUA: -1.05 ± 0.094 and -0.651 ± 0.11. In the case of CGGAAGCAAUAUUACGCGUG, the “self-splicing fitness (ln)” value reads like this: (30 °C) -1.54 ± 0.16; (37 °C) -0.867 ± 0.17.

In the case of CUUUAGCAAUAUUACGCUAG, the “self-splicing fitness (ln)” value was -3.45 ± 0.31 (30 °C) and -2.11 ± 0.27 (37 °C).

For the sequence AAGGAGCAAUAUUACGUAGA, the “self-splicing fitness (ln)” value reads like this: (30 °C) -3.27 ± 0.26; (37 °C) -1.46 ± 0.18.

With UACCAGCAAUAUUACGUCGU, the “self-splicing fitness (ln)” value (30 °C) was -2.09 ± 0.09 and the “self-splicing fitness (ln)” value (37 °C) was -2.14 ± 0.12. In the case of GCGCAGCAAUAUUACGGGGU, the “self-splicing fitness (ln)” value is -2.94 ± 0.096 (30 °C) and -2.31 ± 0.13 (37 °C). Take GCUGAGCAAUAUUACGAGUC: for the setting “37 °C”, the “self-splicing fitness (ln)” value was -2.04 ± 0.25. With GUUCAGCAAUAUUACGGAAC, the “self-splicing fitness (ln)” value runs as follows: (30 °C) -3.19 ± 0.2; (37 °C) -2.09 ± 0.38. For CGAGAGCAAUAUUACGUUGA, the “self-splicing fitness (ln)” value (30 °C) is -2.79 ± 0.38. Regarding UAGCAGCAAUAUUACGCCGU, the “self-splicing fitness (ln)” value (30 °C) is -2.13 ± 0.13 and the “self-splicing fitness (ln)” value (37 °C) is -1.24 ± 0.15. The matching figures for GAACAGCAAUAUUACGGAUA: -2.51 ± 0.13 and -1.28 ± 0.12.

On to ACUAAGCAAUAUUACGAAAU, for which the “self-splicing fitness (ln)” value runs as follows: (30 °C) -2.67 ± 0.16; (37 °C) -1.22 ± 0.17. As to GUCAAGCAAUAUUACGAACA, the “self-splicing fitness (ln)” value by setting is: (30 °C) -2.25 ± 0.22; (37 °C) -1.24 ± 0.19. With UCCCAGCAAUAUUACGUAGU, the “self-splicing fitness (ln)” value runs as follows: (30 °C) -0.707 ± 0.046; (37 °C) -0.458 ± 0.066. The like results for AGUCAGCAAUAUUACGUGCA were, in that order, -0.269 ± 0.073 and -0.501 ± 0.099. As for UGGGAGCAAUAUUACGCCGA, the “self-splicing fitness (ln)” value by setting is: (30 °C) -0.637 ± 0.4; (37 °C) -0.137 ± 0.24. Turning to GCGUAGCAAUAUUACGUGUC, the “self-splicing fitness (ln)” value reads like this: (30 °C) -3.83 ± 0.27; (37 °C) -2.06 ± 0.14. In the case of CGUAAGCAAUAUUACGAUGC, the “self-splicing fitness (ln)” value (37 °C) was -2.04 ± 0.26. Regarding GCACAGCAAUAUUACGAUGG, the “self-splicing fitness (ln)” value was -0.945 ± 0.072 (30 °C) and -1.06 ± 0.081 (37 °C). Regarding GGCUAGCAAUAUUACGAGCA, the “self-splicing fitness (ln)” value is, setting by setting: (30 °C) -0.589 ± 0.081; (37 °C) -0.213 ± 0.12. The like results for AACAAGCAAUAUUACGGUCG were, in that order, -0.247 ± 0.08 and -0.152 ± 0.086. Take CCGGAGCAAUAUUACGUUGA: the “self-splicing fitness (ln)” value (37 °C) was -2.61 ± 0.36.
